Measured values: publication PMC12607020, “NITAC-mediated ISGylation of eIF4E2 attenuates GSK3β proline-directed kinase activity, conferring cytoprotection” (The Journal of Biological Chemistry, 2025)

Target: T1, GST-eIF4E2 (UniProt O60573 1-245)
T1 construct: eukaryotic translation initiation factor 4E family member 2 (eIF4E2, 4EHP); also called GST-tagged eIF4E2; source: E. coli BL21, purified (glutathione sepharose beads)
T1 sequence (looked up): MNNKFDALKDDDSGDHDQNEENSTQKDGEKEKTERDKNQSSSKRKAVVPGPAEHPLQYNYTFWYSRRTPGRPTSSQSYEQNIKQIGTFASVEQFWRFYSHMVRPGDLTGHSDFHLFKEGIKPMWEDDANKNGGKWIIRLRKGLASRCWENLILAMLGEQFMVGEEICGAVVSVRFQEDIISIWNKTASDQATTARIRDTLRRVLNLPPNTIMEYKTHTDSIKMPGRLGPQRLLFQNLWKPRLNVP
Assay: pull-down; GST pull-down: 1 nM His6-tagged and 1 nM GST-tagged protein in 50 mM Hepes pH 7.5, 50 mM NaCl, 2 mM EDTA, 0.1% NP-40, 10% glycerol, 2 h at 4 °C; glutathione-sepharose beads; immunoblot
Settings: both partners purified

Binder	binding result
His6-tagged Nb.28E11 (VHH, nanobody from a synthetic yeast-display library; also called His6-Nb.28E11; source: E. coli BL21, purified (Ni-NTA)) VHH: QVQLQESGGGLVQAGGSLRLSCAASGRTFSSYAMGWFRQAPGKEREFVAAISSGGSITNYADSVKGRFTISRDNAKNTVYLQMNSLKPEDTAVYYCAARYHSLYYGYWGQGTQVTVSS	binds
His6-tagged Nb.30C7 (VHH, nanobody from a synthetic yeast-display library; also called His6-Nb.30C7; source: E. coli BL21, purified (Ni-NTA)) VHH: QVQLQESGGGLVQAGGSLRLSCAASGYTFSSNVMGWFRQAPGKEREFVAAINSGGGRTNYADSVKGRFTISRDNAKNTVYLQMNSLKPEDTAVYYCAAYGRANSSYNYGYWGQGTQVTVSS	binds
